Test results as given in US20020193327A1.

Target: protein receptor on Chang C cells (human)
Assay: 125I-labeled virions on Chang C cells pretreated with 10 µg/ml trypsin, subtilisin, proteinase K or bromelain

With “Wild-type Ad37 (adenovirus type 37) particles” the percent inhibition of specific binding after protease pretreatment of the cells was 50%.
